In patent US20260167699A1 (Chugai, published 2026):

B1: GpH7-A5/GpH7-B3 variant T335_09D/GpL16-k0 (antibody, human IgG1, kappa)
heavy 1: not shown
heavy 2: not shown
light: DIVMTQSPLSLPVTPGEPASISCQASESLVHSNRNTYLHWYLQKPGQSPQLLIYKVSNRFSGVPDRFSGSGSGTDFTLKISRVEAEDVGVYYCSQNTHVPPTFGQGTKVEIERTVAAPSVFIFPPSDEQLKSGTASVVCLLNNFYPREAKVQWKVDNALQSGNSQESVTEQDSKDSTYSLSSTLTLSKADYEKHKVYACEVTHQGLSSPVTKSFNRGEC
notes: copies: 1 + 1 + 2
B2: GpH7-A5/GpH7-B3 variant Y296_13S/GpL16-k0 (antibody, human IgG1, kappa)
heavy 1: not shown
heavy 2: not shown
light: B1 light
notes: copies: 1 + 1 + 2
B3: GpH7-A5/GpH7-B3 variant S337_09D/GpL16-k0 (antibody, human IgG1, kappa)
heavy 1: not shown
heavy 2: not shown
light: B1 light
notes: copies: 1 + 1 + 2
B4: GpH7-A5/GpH7-B3 variant Y296_08L/GpL16-k0 (antibody, human IgG1, kappa)
heavy 1: not shown
heavy 2: not shown
light: B1 light
notes: copies: 1 + 1 + 2
B5: GpH7-A5/GpH7-B3 variant T335_08L/GpL16-k0 (antibody, human IgG1, kappa)
heavy 1: not shown
heavy 2: not shown
light: B1 light
notes: copies: 1 + 1 + 2
B6: GpH7-A5/GpH7-B3 variant Y296_07I/GpL16-k0 (antibody, human IgG1, kappa)
heavy 1: not shown
heavy 2: not shown
light: B1 light
notes: copies: 1 + 1 + 2
B7: GpH7-A5/GpH7-B3 variant Y296_01G/GpL16-k0 (antibody, human IgG1, kappa)
heavy 1: not shown
heavy 2: not shown
light: B1 light
notes: copies: 1 + 1 + 2
B8: GpH7-A5/GpH7-B3 variant V266_07I/GpL16-k0 (antibody, human IgG1, kappa)
heavy 1: not shown
heavy 2: not shown
light: B1 light
notes: copies: 1 + 1 + 2
B9: GpH7-A5/GpH7-B3 variant S337_16H/GpL16-k0 (antibody, human IgG1, kappa)
heavy 1: not shown
heavy 2: not shown
light: B1 light
notes: copies: 1 + 1 + 2
B10: GpH7-A5/GpH7-B3 variant T335_02A/GpL16-k0 (antibody, human IgG1, kappa)
heavy 1: not shown
heavy 2: not shown
light: B1 light
notes: copies: 1 + 1 + 2
B11: GpH7-A5/GpH7-B3 variant Y296_04F/GpL16-k0 (antibody, human IgG1, kappa)
heavy 1: not shown
heavy 2: not shown
light: B1 light
notes: copies: 1 + 1 + 2
B12: GpH7-A5/GpH7-B3 variant Y296_09D/GpL16-k0 (antibody, human IgG1, kappa)
heavy 1: not shown
heavy 2: not shown
light: B1 light
notes: copies: 1 + 1 + 2
B13: GpH7-A5/GpH7-B3 variant S337_20W/GpL16-k0 (antibody, human IgG1, kappa)
heavy 1: not shown
heavy 2: not shown
light: B1 light
notes: copies: 1 + 1 + 2
B14: GpH7-A5/GpH7-B3 variant Y296_11K/GpL16-k0 (antibody, human IgG1, kappa)
heavy 1: not shown
heavy 2: not shown
light: B1 light
notes: copies: 1 + 1 + 2
B15: GpH7-A5/GpH7-B3 variant S337_04F/GpL16-k0 (antibody, human IgG1, kappa)
heavy 1: not shown
heavy 2: not shown
light: B1 light
notes: copies: 1 + 1 + 2
B16: GpH7-A5/GpH7-B3 variant S337_07I/GpL16-k0 (antibody, human IgG1, kappa)
heavy 1: not shown
heavy 2: not shown
light: B1 light
notes: copies: 1 + 1 + 2
B17: GpH7-A5/GpH7-B3 variant S337_02A/GpL16-k0 (antibody, human IgG1, kappa)
heavy 1: not shown
heavy 2: not shown
light: B1 light
notes: copies: 1 + 1 + 2
B18: GpH7-A5/GpH7-B3 variant V266_02A/GpL16-k0 (antibody, human IgG1, kappa)
heavy 1: not shown
heavy 2: not shown
light: B1 light
notes: copies: 1 + 1 + 2
B19: GpH7-A5/GpH7-B3 variant T335_03V/GpL16-k0 (antibody, human IgG1, kappa)
heavy 1: not shown
heavy 2: not shown
light: B1 light
notes: copies: 1 + 1 + 2
B20: GpH7-A5/GpH7-B3 variant Y296_16H/GpL16-k0 (antibody, human IgG1, kappa)
heavy 1: not shown
heavy 2: not shown
light: B1 light
notes: copies: 1 + 1 + 2
B21: GpH7-A5/GpH7-B3 variant T335_01G/GpL16-k0 (antibody, human IgG1, kappa)
heavy 1: not shown
heavy 2: not shown
light: B1 light
notes: copies: 1 + 1 + 2
B22: GpH7-A5/GpH7-B3 variant T335_13S/GpL16-k0 (antibody, human IgG1, kappa)
heavy 1: not shown
heavy 2: not shown
light: B1 light
notes: copies: 1 + 1 + 2
B23: GpH7-A5/GpH7-B3 variant S324_20W/GpL16-k0 (antibody, human IgG1, kappa)
heavy 1: not shown
heavy 2: not shown
light: B1 light
notes: copies: 1 + 1 + 2
B24: GpH7-A5/GpH7-B3 variant T335_05P/GpL16-k0 (antibody, human IgG1, kappa)
heavy 1: not shown
heavy 2: not shown
light: B1 light
notes: copies: 1 + 1 + 2
B25: GpH7-A5/GpH7-B3 variant Y296_02A/GpL16-k0 (antibody, human IgG1, kappa)
heavy 1: not shown
heavy 2: not shown
light: B1 light
notes: copies: 1 + 1 + 2
B26: GpH7-A5/GpH7-B3 variant T335_16H/GpL16-k0 (antibody, human IgG1, kappa)
heavy 1: not shown
heavy 2: not shown
light: B1 light
notes: copies: 1 + 1 + 2
B27: GpH7-A5/GpH7-B3 variant T335_18N/GpL16-k0 (antibody, human IgG1, kappa)
heavy 1: not shown
heavy 2: not shown
light: B1 light
notes: copies: 1 + 1 + 2
B28: GpH7-A5/GpH7-B3 variant T335_19Q/GpL16-k0 (antibody, human IgG1, kappa)
heavy 1: not shown
heavy 2: not shown
light: B1 light
notes: copies: 1 + 1 + 2
B29: GpH7-A5/GpH7-B3 variant Y296_12R/GpL16-k0 (antibody, human IgG1, kappa)
heavy 1: not shown
heavy 2: not shown
light: B1 light
notes: copies: 1 + 1 + 2

Target: T1, FcγRIIIa (human, UniProt P08637 17-208)
T1 construct: extracellular domain; also called 3a; FcγRIIIa extracellular domain
Test: SPR (Biacore);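 further: antibody variants captured on an SPR sensor chip, with FcγRIIIa passed over as analyte in HBS-EP+ buffer at 25 °C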

T1 sequence (P08637 other isoform, or with tags, fused parts or gaps): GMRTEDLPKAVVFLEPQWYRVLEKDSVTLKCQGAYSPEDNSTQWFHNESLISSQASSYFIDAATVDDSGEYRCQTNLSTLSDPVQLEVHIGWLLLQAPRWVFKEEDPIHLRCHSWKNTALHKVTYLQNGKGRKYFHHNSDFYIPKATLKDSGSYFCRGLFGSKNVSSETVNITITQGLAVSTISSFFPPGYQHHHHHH

Binder	He/Con 3a
B1	103 % of GpH7-A5/GpH7-B3/GpL16-k0
B2	58.1 % of GpH7-A5/GpH7-B3/GpL16-k0
B3	102 % of GpH7-A5/GpH7-B3/GpL16-k0
B4	72.4 % of GpH7-A5/GpH7-B3/GpL16-k0
B5	97.8 % of GpH7-A5/GpH7-B3/GpL16-k0
B6	75.8 % of GpH7-A5/GpH7-B3/GpL16-k0
B7	51.3 % of GpH7-A5/GpH7-B3/GpL16-k0
B8	113 % of GpH7-A5/GpH7-B3/GpL16-k0
B9	100 % of GpH7-A5/GpH7-B3/GpL16-k0
B10	90.9 % of GpH7-A5/GpH7-B3/GpL16-k0
B11	79.5 % of GpH7-A5/GpH7-B3/GpL16-k0
B12	89 % of GpH7-A5/GpH7-B3/GpL16-k0
B13	93.8 % of GpH7-A5/GpH7-B3/GpL16-k0
B14	53.3 % of GpH7-A5/GpH7-B3/GpL16-k0
B15	94.4 % of GpH7-A5/GpH7-B3/GpL16-k0
B16	88.3 % of GpH7-A5/GpH7-B3/GpL16-k0
B17	92.4 % of GpH7-A5/GpH7-B3/GpL16-k0
B18	56.8 % of GpH7-A5/GpH7-B3/GpL16-k0
B19	96.3 % of GpH7-A5/GpH7-B3/GpL16-k0
B20	69.1 % of GpH7-A5/GpH7-B3/GpL16-k0
B21	95.1 % of GpH7-A5/GpH7-B3/GpL16-k0
B22	100 % of GpH7-A5/GpH7-B3/GpL16-k0
B23	111 % of GpH7-A5/GpH7-B3/GpL16-k0
B24	100 % of GpH7-A5/GpH7-B3/GpL16-k0
B25	66.3 % of GpH7-A5/GpH7-B3/GpL16-k0
B26	99.3 % of GpH7-A5/GpH7-B3/GpL16-k0
B27	94.4 % of GpH7-A5/GpH7-B3/GpL16-k0
B28	97.7 % of GpH7-A5/GpH7-B3/GpL16-k0
B29	66.5 % of GpH7-A5/GpH7-B3/GpL16-k0
